# Experimental data taken from the nanobody polyreactivity screen of Harvey et al. (2022).
# Test: yeast display, Sf9 membrane polyspecificity reagent, FACS + sequencing; frameworks hold sequencing errors
# Method in brief: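 A nanobody's polyreactivity label depends on the gate it was sorted from. Yeast display cells were stained with 10% biotinylated, detergent-solubilized Sf9 membrane reagent for 1 hour at 4 °C, enriched on streptavidin microbeads and sorted by FACS. The low and high (top ~1%) gates were set on anti-HA fluorescence for expression and streptavidin fluorescence for reagent binding.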
row,Sequence,polyreactivity (PSR sort gate)
1,QVQLVESGGGLVQAGGSLRISCAASGRTFYQYDMGWYRQAPGKERELVAAIDWSGGSTYYADSVKGRFTISRDNAKNTVYLQMNSLKPEDTAVYYCNADAYPHPVVGYDYWGQGTQVTVSS,low polyreactivity
2,QVQLVESGGGLVQAGGSLRISCAASGSIFATYAMGWYRQAPGKERELVAAISWSSGSTYYADSVKGRFTISRDNAKNTVYLQMNSLNPEDTAVYYCNKDWLAYDSLRVTSTIAFDYWGQGSQVTVSS,low polyreactivity
3,QVQLVESGGGLVQAGGSLRISCAASGSIFDTNPMGWYRQAPGKERELVAAITSSGASTYYADSVKGRFTISRDNAKNTVYLQMNSLKPEDTAVYYCAADGAVDGGYWGQGTQVTVSS,low polyreactivity
4,QVQLVESGGGLVQAGGSLRISCAASGSIFGGYAMGWYRQAPGKERELVAAISSGGSTYYADSVKGRFTISRDNAKNTVYLQMNSLKPEDTAVYYCATSTYAYRRNSYYYTRPRFGYWGQGTQVTVSS,high polyreactivity
5,QVQLVESGGGLVQAGGSLRISCAASGSIFGYYAMGWYRQAPGKERELVAAITRSGGSTYYADSVKGRFTISRDNAKNTVYLQMNSLKPEDTAVYYCAAYYGHLYYTFDYWGQGTQVTVSS,low polyreactivity
6,QVQLVESGGGLVQAGGSLRISCAASGSIFHDNAMGWYRQAPGKERELVAASTTSGGNTYYADSVKGRFTISRDNAKNTVYLLMNSLKPEDTAVYYCAAGQSVFASWLDNGWSAYTYYYWGQGTQVTVSS,low polyreactivity
7,QVQLVESGGGLVQAGGSLRISCAASGSIFLLYTMGWYRQAPGKEREMVATITSSGGSTYYADSVKGRFTISRDNAKNTVYLHMNSLKPEDTAVYDCNAVGSTWGSFVRYGAQYDYWGQGTEVTVSS,low polyreactivity
8,QVQLVESGGGLVQAGGSLRISCAASGSIFQFNAMGWSRQAPGKERELVASISASGGSTYYADSVKGRFTISRDNAKNTVYLQMNSLKPEDTAVYYCAADFIRSWFIWRGSFDYWGLGTQVTVSS,low polyreactivity
9,QVQLVESGGGLVQAGGSLRISCAASGSIFQGYAMGWYRQAPGKERELVATITWSGGSTYYADSVTGRFTISRDNAKNTVYLQMNSLKPEETAVYYCNADSNGYYLWNYYGMYDYWGQGTEVTVSS,low polyreactivity
10,QVQLVESGGGLVQAGGSLRISCAASGSIFRRNAMGWYRQAPGKERELVATITSDGSTDYADSVKGRFTISRDNAKYTVYLQMNRLKPEDTVYYCAAGRTPYWHATFGYWGQGTQVTVSS,low polyreactivity
11,QVQLVESGGGLVQAGGSLRISCAASGSNFASYAMGWYRQAPGKERELVSVITSGGRTYYADSVKGRFTISRDNAKNTVYLQMNSLKPEDTAVYYCKAYLFFLNRVWSFDYWGQGTQVTVSS,high polyreactivity
12,QVQLVESGGGLVQAGGSLRISCAASGSNFNPYDMGGYRQAPGKESELVAAIRTAGSTYYADSVKGRFTISRDNAKNTVYLQMISLNPEDTAVYYCNADEGFLYSAYEYDYWGQGTQVTVSS,low polyreactivity
13,QVQLVESGGGLVQAGGSLRISCAASGSNFTQYDMGWYRQAPGKERELVAAITSGGSTDYADSVKGRFTISRDNAKNTVYLQMNSLKPEDTAVYYCNAEAYPYWYRGASREYDYWGQGTQVTVSS,low polyreactivity
14,QVQLVESGGGLVQAGGSLRISCAASGSTFGRNAMGWYSQAPGKERELVAAISSGGSTSYADSVKGRFTISRDNAKYTVYLQMNSLKPEDTAVYYCAAHSVGSQYDYWGQGTQVTVSS,low polyreactivity
15,QVQLVESGGGLVQAGGSLRISCAASGSTFYPNAMGWYRPAPGTERELVAAIRGTGGSTYADSVKGRFTISRDNAKNTVYLQMNSLKPEDTAVYYCAAAGWTYRVEKYSVRLTGYDYWGQGTQVTVSS,high polyreactivity
16,QVQLVESGGGLVQAGGSLRISCAASGSTIAGYTMGLYRQAPGKEMELVAAISRRGSRTYYADSVKGRFTISRDNAKNTVYLQMNSLKPEDTAVYYCNARNRVYYTLSGYGYWGQGTQVTVSS,high polyreactivity
17,QVQLVESGGGLVQAGGSLRISCAASGSTLYRNAMGWYRQAPGKERELVAAISRTGGRTYYADSVKGRCTISRDNANNTVYLQMNSLKPEETAVYYCNTLTPSYTSGTHTFYSWGQGTQVTVSS,high polyreactivity
18,QVQLVESGGGLVQAGGSLRISCAASRSIFPLNAMGWYRQAPGKERELVAAITRSGGSTYYADSVKGRFTISRDNAKNTVYLQMNSLKPEDTAVYYCATDPEWPLPAYYYWGQGTQVTVSS,low polyreactivity
19,QVQLVESGGGLVQAGGSLRISCADSGSIFGYNAMGWYRQAPGKERELVAAISWSGGRTYYADSVKGRFTISRDNAKNTVSFQMNSLKPEDTAVYYCAAPSTGTYGSDYWGHGTQVTVSS,high polyreactivity
20,QVQLVESGGGLVQAGGSLRISCAPSGITLRRNAMGRYRQAPGKERELVARISTTGGSTYYADSVKGRFTISRDNAKNTVYLQMNSLKPEDTAVYYCAARAPLGFWHYDYWGQGTQVTVSS,high polyreactivity

row,Sequence,polyreactivity (PSR sort gate)
1,QVQLVESGGGLVQAGGSLRISCAPSGSIFSDYAMGWYRQAPGKERELVATISSSGSTNYADSVKGRFTISRDNAKNTVYLQMNSLKPEDTAVYYCAAARLFAMDYWGQGTQVTVSS,low polyreactivity
2,QVQLVESGGGLVQAGGSLRISCAPSGSTFPRYAMGWYRQAPGKEREFVAVIWSGGSTYYADSVKGRFTISRDNAKNTVYLQMNSLKPEDTAVYYCAAEYHTLSKYSGYATHDYWGQGTQVTVSS,low polyreactivity
3,QVQLVESGGGLVQAGGSLRISCASSGNTFTSYAMGWYRQAPGKASELVASIDSDDSTNYADSVKGRFTISRDNAKNTDYFQMNSLKPEETAVFYCAASDNDDWYYVYHYDYWVQGTQVTVSS,low polyreactivity
4,QVQLVESGGGLVQAGGSLRISCDASGSIISRNAMGWYRQAPGKEREFVAAITRSGGSTSYADSVKGRFTISRDNAKNTVYLQMNSLKPEDTAVYYCAASYARSATAYYKYYDWGQGTQVTVSS,high polyreactivity
5,QVQLVESGGGLVQAGGSLRISCDASGSTFKLYPMGWYRQAPGKEREFVAAISRSGGSTNYADSVNGRFTISRDNAKNTVYLQMNSLKPEDTAVYYCAARYPGNYDYWGQGTQVTVSS,high polyreactivity
6,QVQLVESGGGLVQAGGSLRISCDPSGSTFGQYAMGSYRQAPGKERELVAAINWNGGSTYYADSVKGRFTISRDNAKNTVYLQMNSLKPEDTAVYYCAADPVYYDFDYWGQGTQVTVSS,low polyreactivity
7,QVQLVESGGGLVQAGGSLRISCVASARTFRWYAMGWYRQAPGKERELVATITLNGGSTYYADSVKGRFTISRDNAKNNVYLQMNSLKPEDTAVYYCNRGTNVVRRGVYSFGYDYWGQGTQVTVSS,low polyreactivity
8,QVQLVESGGGLVQAGGSLRISSAASGFIFSLNAMGWYRQAPGKERELVASITRSGTRTYYADSVKGRFTISRDNAKKTDFLQRNSLKPEATAVDYCAARTKRSYEYQAFYYWGQGTQVTVSS,high polyreactivity
9,QVQLVESGGGLVQAGGSLRISSAASGRIFRVNGIGWYIQAPGKERELVAAIRRSGGSTYYADSVKGRFTISRDNAKNSVYLLMNILKPDDTAVYFCAAPVRQSSYTRYDSWGQGTQVTVSS,high polyreactivity
10,QVQLVESGGGLVQAGGSLRISSAASGRMLYSYAMGWYRQAPGKESEFVAAIRRSGGSTYYADSVKGRFTISRDNAKNTVYLQMNSLKPEDTAFYYCAAGRRYSGSYDYWGQGTQVTVSS,high polyreactivity
11,QVQLVESGGGLVQAGGSLRITCAASGSTFYGKSMGLYRQAPGKERELVAAISRGGGSTYYADSVKGRFTISRDNAKNTVYLQMNSLIPEDTAVYYCAGTRYLHPWYYPYYYWGQGTQVTVSS,low polyreactivity
12,QVQLVESGGGLVQAGGSLRLALLTPDLPSTINDMGWYRQAPGKERELVAAITRGGSTNYADSVKGRFTISRDNAKNTVYLQMNSLKPEDTAVYYCAAPSAGWRDGGDYWGHGTQVTVSS,low polyreactivity
13,QVQLVESGGGLVQAGGSLRLAVLPPVLPSTLNDMGWYRQAPGKERELVAAITRGGSTNYADSVKGRFTISRDNAKNTVYLQMNSQKPEDTAVYYCAAPYAGWRDGGDNWGQGTQVTVSS,low polyreactivity
14,QVQLVESGGGLVQAGGSLRLCCAASGLIFRRYTMGWYRQAPGKERELVAAISWRVGRTYYADSVKGRFTISRDNAKNTVYLEMNSLKPEDTAVYYCAAILYQYDTPQVSSSRLDYWGQGTQVTVSS,high polyreactivity
15,QVQLVESGGGLVQAGGSLRLCCAASGSIFRPNAMGWYRQAPGKERELVAGISSRGGSTYYADSVKGRFTISRDNAKNTVYLQMNSLKPEDTAVYYCNALTYSSQRNSFYYSFDHWGQGTQVTVSS,high polyreactivity
16,QVQLVESGGGLVQAGGSLRLCCAASGSTFGWNAMRSYRQAPGNERELVAAISSSGGITYYADSVKGRFPISRDNAKNTVYLQMNSLKPEDTAVYYCAAERDDDWFNYWGQGTQVTVSS,low polyreactivity
17,QVQLVESGGGLVQAGGSLRLICAASGASFFDKDMGWYRQAPGKERELVAAAITARGGSTYYADSVKGRFTISRDNAKNTVYLQMNSLKPEDTAVYYCAAGRPGELDYWGQGTQVTVSS,low polyreactivity
18,QVQLVESGGGLVQAGGSLRLICAASGFIFDTYTMGWYRQAPGKERELVAAISRSGASTYYADSVKGRFTISRDNAKNTVYLQMNSLKPEDTAVYYCATVYYPSYRGGYDYWGQGTQVTVSS,high polyreactivity
19,QVQLVESGGGLVQAGGSLRLICAASGFIFDYNTMGWYRPAPGKERELVAGITSGGSTNYADSVKGRFTISRDNAKNTVYLQMNSLKPEDTAVYYCATVDDEYYGYDYWGQGSQVTVSS,low polyreactivity
20,QVQLVESGGGLVQAGGSLRLICAASGFIFESNAMGWYRQAPGKERELVAAITSAGRTYYADSVKGRFTISRDNAKNTVYLQMNSLKPEDNAVYYCNATRSRYRYDYWGQGTQVTVSS,high polyreactivity
